Measurements taken from PMC5768801, “The PII signaling protein from red algae represents an evolutionary link between cyanobacterial and Chloroplastida PII proteins” (Scientific Reports, 2018).

Key:
[1] = molecular target: T1, N-acetyl-L-glutamate kinase from Synechocystis sp. PCC 6803 with an N-terminal His6 tag (Synechocystis sp. PCC 6803) (UniProt P73326)
T1 sequence: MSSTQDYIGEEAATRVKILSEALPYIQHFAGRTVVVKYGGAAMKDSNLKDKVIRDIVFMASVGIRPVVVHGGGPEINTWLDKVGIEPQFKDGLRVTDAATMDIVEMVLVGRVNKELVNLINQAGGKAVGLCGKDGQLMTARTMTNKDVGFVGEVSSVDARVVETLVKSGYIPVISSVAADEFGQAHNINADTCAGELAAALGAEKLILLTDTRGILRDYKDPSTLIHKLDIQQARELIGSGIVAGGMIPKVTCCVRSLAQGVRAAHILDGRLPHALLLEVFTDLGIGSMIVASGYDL

[2] = molecular target: T1, N-acetyl-L-glutamate kinase from Synechocystis sp. PCC 6803 with an N-terminal His6 tag (Synechocystis sp. PCC 6803); remark: listed apart in the source

Chain of PII protein from the red alga Porphyra purpurea with a C-terminal Strep-tag II (P51254 whole entry): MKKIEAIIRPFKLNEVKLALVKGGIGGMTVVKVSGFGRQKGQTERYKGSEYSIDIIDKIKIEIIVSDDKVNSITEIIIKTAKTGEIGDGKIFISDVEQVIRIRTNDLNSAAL

catalytic efficiency (Kcat/Km) of ScNAGK in the coupled NAGK activity assay, PpPII-complexed (free ScNAGK: 0.55 × 10^3 s^−1M^−1); NAG varied at 10 mM ATP [1]: 2360 s^−1M^−1
relief of ScNAGK from feedback inhibition by arginine: rise of the IC50 for arginine on addition of PpPII (free ScNAGK: IC50 6.2 µM), coupled NAGK assay, without glutamine [2]: 4 fold
Substance: PII protein from the red alga Porphyra purpurea with a C-terminal Strep-tag II (from UniProt P51254 1-112) (natural protein)
